Measurements as given in paper doi:10.1101/2025.09.23.678148 (bioRxiv, 2025).

T1: recombinant full-length mouse IRF1 (mouse, UniProt P15314 1-329)
T1 sequence (looked up): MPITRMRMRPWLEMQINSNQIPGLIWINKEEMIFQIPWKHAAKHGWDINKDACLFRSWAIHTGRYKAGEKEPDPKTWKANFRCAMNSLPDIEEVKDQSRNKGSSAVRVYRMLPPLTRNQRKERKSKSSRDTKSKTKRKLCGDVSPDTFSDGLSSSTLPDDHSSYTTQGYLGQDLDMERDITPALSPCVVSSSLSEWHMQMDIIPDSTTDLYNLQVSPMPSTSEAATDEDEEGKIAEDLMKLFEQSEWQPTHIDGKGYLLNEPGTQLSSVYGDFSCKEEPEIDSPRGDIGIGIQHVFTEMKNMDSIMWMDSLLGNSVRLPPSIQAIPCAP

T2: IRF1;IRF2 (mouse;mouse, UniProt P15314;P23906 1-329;1-349, |)
T2 sequence 1: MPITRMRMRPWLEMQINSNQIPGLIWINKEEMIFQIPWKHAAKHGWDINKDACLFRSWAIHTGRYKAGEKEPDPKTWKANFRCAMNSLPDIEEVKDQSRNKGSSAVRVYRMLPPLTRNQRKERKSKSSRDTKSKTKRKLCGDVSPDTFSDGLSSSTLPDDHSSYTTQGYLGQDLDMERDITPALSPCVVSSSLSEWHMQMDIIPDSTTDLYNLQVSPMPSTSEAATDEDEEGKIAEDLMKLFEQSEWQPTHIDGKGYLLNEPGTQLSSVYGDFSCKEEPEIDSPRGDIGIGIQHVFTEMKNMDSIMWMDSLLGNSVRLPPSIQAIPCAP
T2 sequence 2: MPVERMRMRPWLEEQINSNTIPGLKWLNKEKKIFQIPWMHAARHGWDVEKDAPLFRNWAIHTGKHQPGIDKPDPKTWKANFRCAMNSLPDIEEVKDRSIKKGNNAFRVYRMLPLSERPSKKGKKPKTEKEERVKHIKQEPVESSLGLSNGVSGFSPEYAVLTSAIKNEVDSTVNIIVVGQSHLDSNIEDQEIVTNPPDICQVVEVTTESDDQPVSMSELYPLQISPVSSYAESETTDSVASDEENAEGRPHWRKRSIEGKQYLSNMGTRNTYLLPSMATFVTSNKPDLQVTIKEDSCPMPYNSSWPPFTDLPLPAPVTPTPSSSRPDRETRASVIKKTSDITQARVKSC

T3: IRF2 (mouse, UniProt P23906 1-349)
T3 sequence: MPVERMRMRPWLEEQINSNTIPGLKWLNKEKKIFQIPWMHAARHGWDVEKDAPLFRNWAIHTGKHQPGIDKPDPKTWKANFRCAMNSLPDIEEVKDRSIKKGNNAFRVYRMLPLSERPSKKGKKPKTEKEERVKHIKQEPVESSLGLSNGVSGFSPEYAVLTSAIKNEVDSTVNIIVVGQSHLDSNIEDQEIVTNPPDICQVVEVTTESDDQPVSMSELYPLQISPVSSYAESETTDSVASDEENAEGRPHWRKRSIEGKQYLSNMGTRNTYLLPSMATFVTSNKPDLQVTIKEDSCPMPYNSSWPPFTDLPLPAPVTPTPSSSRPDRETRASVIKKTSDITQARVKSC

T4: IRF1 (mouse, UniProt P15314 1-329)
T4 sequence: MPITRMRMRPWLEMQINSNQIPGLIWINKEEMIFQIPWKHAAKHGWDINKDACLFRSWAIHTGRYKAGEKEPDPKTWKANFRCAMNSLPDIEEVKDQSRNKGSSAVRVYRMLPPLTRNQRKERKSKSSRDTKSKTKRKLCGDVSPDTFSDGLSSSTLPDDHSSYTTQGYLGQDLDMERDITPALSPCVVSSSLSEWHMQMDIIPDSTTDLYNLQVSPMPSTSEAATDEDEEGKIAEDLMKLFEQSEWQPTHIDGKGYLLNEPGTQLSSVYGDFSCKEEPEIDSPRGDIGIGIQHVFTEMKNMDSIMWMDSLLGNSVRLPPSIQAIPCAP


Legend:
[1] = biological target: T1, recombinant full-length mouse IRF1; assay: native gel or EMSA
IRF1;IRF2 = biological target: T2, IRF1;IRF2; assay: EMSA
SPOP = SPOP (mouse, UniProt Q6ZWS8 28-329); assay: EMSA
IRF2 = biological target: T3, IRF2; assay: EMSA
IRF1 = biological target: T4, IRF1; assay: EMSA
IRF1;SPOP = IRF1;SPOP (mouse;mouse, UniProt P15314;Q6ZWS8 1-329;28-329, |); assay: EMSA

Binder | binding result [1] | binding result (IRF1;IRF2) | binding result (SPOP) | binding result (IRF2) | binding result (IRF1) | binding result (IRF1;SPOP)
recombinant mouse SPOP (aa28-329) (domain or fragment, UniProt Q6ZWS8 28-329, looked up) KVVKFSYMWTINNFSFCREEMGEVIKSSTFSSGANDKLKWCLRVNPKGLDEESKDYLSLYLLLVSCPKSEVRAKFKFSILNAKGEETKAMESQRAYRFVQGKDWGFKKFIRRDFLLDEANGLLPDDKLTLFCEVSVVQDSVNISGQNTMNMVKVPECRLADELGGLWENSRFTDCCLCVAGQEFQAHKAILAARSPVFSAMFEHEMEESKKNRVEINDVEPEVFKEMMCFIYTGKAPNLDKMADDLLAAADKYALERLKVMCEDALCSNLSVENAAEILILADLHSADQLKTQAVDFINYHA | binds |  |  |  |  | 
Gbp2 promoter probe, single IRF motif (dsDNA) DNA 1: CAGTGAAAGTGAAACTAAAAAGCAC DNA 2: GTGCTTTTTAGTTTCACTTTCACTG |  | binds | no binding | binds | binds | binds
Gbp2 probe, GAAA core and 5'-flanking AA mutated (dsDNA) DNA 1: CAGTGCCCGTGCCCCTACCCAGCAC DNA 2: GTGCTGGGTAGGGGCACGGGCACTG |  |  |  | no binding | no binding | 
DNA with a single AAA core (dsDNA) DNA 1: CAGTGAAAGTGCCCCTACCCAGCAC DNA 2: GTGCTGGGTAGGGGCACTTTCACTG |  |  |  |  | no binding | 
